Test: Narrow pH stability study of rhNRG-1 (pH 2.3 to 4.3) by RP-HPLC with Arrhenius shelf life prediction
Format: physicochemical
Experimental: In a plastic tube, add the API and DI-water. Mix into a solution containing 0.25 mg/mL rhNRG-1, 4 mM phosphate (from the API) and 0.1M NaCl (from the API). Adjust pH down using a diluted HCl. Once the first target is reached, transfer about 8 mL into a separate plastic tube and continue the titration to hit the next target and collect about 8 mL at each target (i.e. 4.29, 3.90, 3.78, 3.47, 3.36, 3.17, 3.02, 2.85, 2.58, 2.37 and 2.33). For each pH, transfer into glass vials for total 5 vials each level. Place one vial each at 2-8, 25, 40, 50 and 60° C. […]
For 40° C., remove 200 μL and test by HPLC after 0, 5.7, 7 and 11 days
Construct a narrow range pH-rate (stability) profile at each temperature.
Derive an Arrhenius equation and predict shelf life at 5° C.
Using the 40, 50 and 60° C. data for each pH (2.3 to 3.9), an Arrhenius plot was used to predict the shelf life at 5° C. for each pH level. The T90 values calculated from the Arrhenius plots are provided as follows (Table 11): […]

[1] = pH 2.37, predicted shelf life at 5° C. from Arrhenius plot
[2] = pH 2.58, predicted shelf life at 5° C. from Arrhenius plot
[3] = pH 3.02, predicted shelf life at 5° C. from Arrhenius plot
[4] = pH 3.36, predicted shelf life at 5° C. from Arrhenius plot
[5] = pH 3.90, predicted shelf life at 5° C. from Arrhenius plot

B1: rhNRG-1: proteins or peptides which consist of amino acid sequence of SEQ ID NO: 2 (protein, listed as Homo sapiens)
chain: SHLVKCAEKEKTFCVNGGECFMVKDLSNPSRYLCKCPNEFTGDRCQNYVMASFYKAEELYQ
pH 2.3 to 4.3
  pH of the best stability, narrow pH study: 3.4 (±0.2)
pH 2.37 (diluted HCl)
  Initial Conc: 0.241 mg/mL
pH 2.37, 40° C., 5.7 days
  % over initial conc.: 90%
pH 2.37, 40° C., 7 days
  % over initial conc.: 83%
pH 2.37, 40° C., 11 days
  % over initial conc.: 77%
pH 2.37, 50° C., 5.7 days
  % over initial conc.: 82%
pH 2.37, 50° C., 7 days
  % over initial conc.: 53%
pH 2.37, 50° C., 11 days
  % over initial conc.: 36%
pH 2.37, 60° C., 3.7 days
  % over initial conc.: 55%
pH 2.37, 60° C., 4.7 days
  % over initial conc.: 57%
pH 2.37, 60° C., 5.7 days
  % over initial conc.: 43%
[1]
  T90: 166 days
  T90 (months): 6 months
pH 2.58 (diluted HCl)
  Initial Conc: 0.238 mg/mL
pH 2.58, 40° C., 5.7 days
  % over initial conc.: 96%
pH 2.58, 40° C., 7 days
  % over initial conc.: 89%
pH 2.58, 40° C., 11 days
  % over initial conc.: 83%
pH 2.58, 50° C., 5.7 days
  % over initial conc.: 90%
pH 2.58, 50° C., 7 days
  % over initial conc.: 54%
pH 2.58, 50° C., 11 days
  % over initial conc.: 35%
pH 2.58, 60° C., 3.7 days
  % over initial conc.: 62%
pH 2.58, 60° C., 4.7 days
  % over initial conc.: 60%
pH 2.58, 60° C., 5.7 days
  % over initial conc.: 55%
[2]
  T90: 317 days
  T90 (months): 11 months
pH 3.02 (diluted HCl)
  Initial Conc: 0.236 mg/mL
pH 3.02, 40° C., 5.7 days
  % over initial conc.: 99%
pH 3.02, 40° C., 7 days
  % over initial conc.: 94%
pH 3.02, 40° C., 11 days
  % over initial conc.: 88%
pH 3.02, 50° C., 5.7 days
  % over initial conc.: 95%
pH 3.02, 50° C., 7 days
  % over initial conc.: 79%
pH 3.02, 50° C., 11 days
  % over initial conc.: 70%
pH 3.02, 60° C., 3.7 days
  % over initial conc.: 70%
pH 3.02, 60° C., 4.7 days
  % over initial conc.: 68%
pH 3.02, 60° C., 5.7 days
  % over initial conc.: 0%
[3]
  T90: 612 days
  T90 (months): 20 months
pH 3.36 (diluted HCl)
  Initial Conc: 0.230 mg/mL
pH 3.36, 40° C., 5.7 days
  % over initial conc.: 101%
pH 3.36, 40° C., 7 days
  % over initial conc.: 97%
pH 3.36, 40° C., 11 days
  % over initial conc.: 90%
pH 3.36, 50° C., 5.7 days
  % over initial conc.: 99%
pH 3.36, 50° C., 7 days
  % over initial conc.: 85%
pH 3.36, 50° C., 11 days
  % over initial conc.: 76%
pH 3.36, 60° C., 3.7 days
  % over initial conc.: 77%
pH 3.36, 60° C., 4.7 days
  % over initial conc.: 69%
pH 3.36, 60° C., 5.7 days
  % over initial conc.: 63%
[4]
  T90: 1092 days
  T90 (months): 36 months
pH 3.90 (diluted HCl)
  Initial Conc: 0.230 mg/mL
pH 3.90, 40° C., 5.7 days
  % over initial conc.: 101%
pH 3.90, 40° C., 7 days
  % over initial conc.: 96%
pH 3.90, 40° C., 11 days
  % over initial conc.: 88%
pH 3.90, 50° C., 5.7 days
  % over initial conc.: 102%
pH 3.90, 50° C., 7 days
  % over initial conc.: 88%
pH 3.90, 50° C., 11 days
  % over initial conc.: 79%
pH 3.90, 60° C., 3.7 days
  % over initial conc.: 83%
pH 3.90, 60° C., 4.7 days
  % over initial conc.: 81%
pH 3.90, 60° C., 5.7 days
  % over initial conc.: 73%
[5]
  T90: 239 days
  T90 (months): 8 months
pH 4.29 (diluted HCl)
  Initial Conc: 0.235 mg/mL
pH 4.29, 50° C., 5.7 days
  % over initial conc.: 100%
pH 4.29, 50° C., 11 days
  % over initial conc.: 78%
pH 4.29, 60° C., 3.7 days
  % over initial conc.: 80%
pH 4.29, 60° C., 5.7 days
  % over initial conc.: 72%
